Measured values reported in patent US20210147572A1, “ANTIBODIES AND METHODS OF USE THEREOF” (AbeXXa Biologics, Inc., priority 2017, published 2021).

Tests used:
[1] = target: HLA-E*0103 (Homo sapiens, UniProt P13747); assay: HLA-E*0103 peptide binding and refolding into monomer; assay type: biochemical
[2] = target: T1, HLA-E molecules expressed in PDX lung tumor tissue (Homo sapiens, UniProt P13747); assay: LC/MS/MS validation of peptides eluted from HLA-E of PDX lung tumor tissue; conditions: PDX model LU5139, HLA-E affinity column 4D12
T1 construct: tissue Crown Biosciences PDX model LU5139; host or cells: patient-derived xenograft lung tumour tissue
Procedure: FIG. 6 exemplifies a validation strategy used for cancer specific HLA-E-peptide targets. 1) Snap-frozen tumor tissue isolated from patient-derived xenograft (PDX) models, patient biopsies or freshly isolated hematological cancer cells are stored frozen in liquid nitrogen. 2) Sample of material is isolated and resuspended in 5 to 10 ml of lysis buffer and homogenized for 10 seconds on ice. After lhr incubation on ice, the sample is centrifuged for 20 min at 40,000 g. 3) An affinity column is prepared using antibody 4D12 or another antibody to HLA-E. The purified anti-HLA-E antibodies are coupled to a CN-Br-activated sepharose beads. The clarified supernatant is then applied to the affinity column. The column is washed with PBS, followed by a second wash with water and the sample eluted with 0.1M glycine pH 3.0. 4) Collected sample is immediately neutralized with addition of NH4HCO3. […]
PDX lung tumor tissue was purchased from Crown Biosciences and used for extraction of HLA-E-peptide complexes. […] An aliquot of sample supernatant was removed and protein concentration was determined by BCA assay. […]
Peptide mixture samples underwent solid-phase extraction cleanup with an Oasis HLB elution plate (Waters) and the resulting samples were analyzed by LC/MS/MS, using an Orbitrap Fusion Lumos mass spectrometer (Thermo Electron) coupled to an UltiMate™ 3000 RSLC-Nano liquid chromatography system (Dionex). […]

[3] = target: T2, HLA-E*0103 extracellular domain with beta-2-microglobulin (recombinant, before peptide loading) (human); assay: peptide binding and refold into monomer complex
[4] = target: T2, HLA-E*0103 extracellular domain with …; assay: in vitro refold, Superdex 75 size exclusion

In the case of YLLPAIVHI [RNA Helicase p68 peptide], the “HLA-E*0103 peptide binding, refold into stable monomer complexes” value [1] is reported as “successfully refold HLA-E*0103/peptide into stable monomer complexes”.

In the case of GLADKVYFL, the “Peptide detected in lung PDX tissue by LC/MS/MS” value [2] is reported as “isolated from HLA-E molecules expressed in PDX lung tumor tissue”.

YLLPAIVHI [peptide YLLPAIVHI (RNA Helicase p68)]: binds [3].

GLADKVYFL [peptide GLADKVYFL (CAD protein)]: binds [4].
